From paper PMC7439480, “Phosphorylation-Dependent Assembly of a 14-3-3 Mediated Signaling Complex during Red Blood Cell Invasion by Plasmodium falciparum Merozoites” (mBio, 2020) come the findings set out here.

The target of the assay is T1, recombinant glutathione S-transferase (GST)-tagged Pf14-3-3I protein (P. falciparum, UniProt C0H4V6 1-262).
T1 construct: 14-3-3 protein I, P. falciparum, PF3D7_0818200; also called Pf14-3-3I-GST; recombinant Pf14-3-3I; source: recombinant
T1 sequence: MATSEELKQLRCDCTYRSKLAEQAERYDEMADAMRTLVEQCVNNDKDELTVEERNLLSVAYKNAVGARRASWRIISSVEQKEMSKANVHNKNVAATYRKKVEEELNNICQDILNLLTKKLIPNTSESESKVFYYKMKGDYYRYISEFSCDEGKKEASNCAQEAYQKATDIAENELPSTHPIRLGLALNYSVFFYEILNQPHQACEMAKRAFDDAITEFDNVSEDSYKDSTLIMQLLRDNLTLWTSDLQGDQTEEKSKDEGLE
Briefly: pull-down; peptides coupled to agarose beads (Pierce co-IP kit) incubated with GST-tagged Pf14-3-3I; eluates blotted with anti-Pf14-3-3I mouse sera; noncoated beads as control. The conditions noted are these: both partners purified.

Non-standard residues stand in square brackets, D forms with d. No end group written: not given here. pS = N[C@@H](COP(=O)(O)O)C(=O)O

B1: 14-3-3 binding peptide RA (RLYHpSLPA) (peptide)
peptide: RLYH[pS]LPA
notes: Coupled to agarose beads (Pierce co-IP kit) for the pull-down; also called phosphopeptide RA; source: synthetic peptide
Turning to B1, the binding result is on record as “binds”.

B2: 14-3-3 binding peptide AA (ARSHpSYPA) (peptide)
peptide: ARSH[pS]YPA
notes: Coupled to agarose beads (Pierce co-IP kit) for the pull-down; also called phosphopeptide AA; source: synthetic peptide
Consider B2, for which the binding result is listed as “binds”.
